These sequences were tested on Escherichia coli TOP10 (assay: shrunken log2 fold change of peptide-encoding DNA abundance (4.5 h post-induction vs induction); higher = less antimicrobial activity (less host growth inhibition)). Conditions: time post-induction: 4.5 h; library: site-saturation at positions 5, 18, 19, 20.
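Also: peptides expressed intracellularly from a pBAD plasmid library in pooled LB shake-flask culture, induced with 0.3% L-arabinose, DNA abundance read by NGS, three biological replicates, DESeq2 with apeglm shrinkage.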

Row | Sequence | shrunken log2 fold change
1 | RRIRHRPPRLPRPRPRPWAIPRP | 0.112
2 | RRIRHRPPRLPRPRPRPWCLPRP | -1.67
3 | RRIRHRPPRLPRPRPRPWCYPRP | -0.297
4 | RRIRHRPPRLPRPRPRPWFVPRP | -0.14
5 | RRIRHRPPRLPRPRPRPWFYPRP | -0.244
6 | RRIRHRPPRLPRPRPRPWHRPRP | -0.119
7 | RRIRHRPPRLPRPRPRPWIMPRP | -0.597
8 | RRIRHRPPRLPRPRPRPWRPPRP | 0.29
9 | RRIRHRPPRLPRPRPRPWTMPRP | -0.344
10 | RRIRHRPPRLPRPRPRPWVLPRP | -0.776
11 | RRIRHRPPRLPRPRPRPWVWPRP | 0.296
12 | RRIRHRPPRLPRPRPRPYCCPRP | -0.305
13 | RRIRHRPPRLPRPRPRPYCHPRP | -0.0851
14 | RRIRHRPPRLPRPRPRPYCRPRP | -0.0455
15 | RRIRHRPPRLPRPRPRPYDCPRP | -0.0596
16 | RRIRHRPPRLPRPRPRPYEPPRP | -0.451
17 | RRIRHRPPRLPRPRPRPYFNPRP | -0.882
18 | RRIRHRPPRLPRPRPRPYFRPRP | -0.296
19 | RRIRHRPPRLPRPRPRPYHHPRP | -0.607
20 | RRIRHRPPRLPRPRPRPYIMPRP | -0.431
21 | RRIRHRPPRLPRPRPRPYKLPRP | -0.611
22 | RRIRHRPPRLPRPRPRPYLPPRP | -0.618
23 | RRIRHRPPRLPRPRPRPYNYPRP | -0.00747
24 | RRIRHRPPRLPRPRPRPYPPPRP | -0.694
25 | RRIRHRPPRLPRPRPRPYPYPRP | -0.43

Row | Sequence | shrunken log2 fold change
26 | RRIRHRPPRLPRPRPRPYQGPRP | -0.00674
27 | RRIRHRPPRLPRPRPRPYQMPRP | -0.113
28 | RRIRHRPPRLPRPRPRPYSCPRP | -0.0837
29 | RRIRHRPPRLPRPRPRPYSDPRP | -1.17
30 | RRIRHRPPRLPRPRPRPYSEPRP | -0.29
31 | RRIRHRPPRLPRPRPRPYSMPRP | -0.878
32 | RRIRHRPPRLPRPRPRPYTMPRP | -0.393
33 | RRIRHRPPRLPRPRPRPYTVPRP | 0.0229
34 | RRIRHRPPRLPRPRPRPYVWPRP | 0.0405
35 | RRIRHRPPRLPRPRPRPYWGPRP | -0.0562
36 | RRIRHRPPRLPRPRPRPYWRPRP | -0.347
37 | RRIRIRPPRLPRPRPRPAANPRP | 0.0204
38 | RRIRIRPPRLPRPRPRPAASPRP | 0.241
39 | RRIRIRPPRLPRPRPRPAATPRP | 0.0455
40 | RRIRIRPPRLPRPRPRPACRPRP | 0.225
41 | RRIRIRPPRLPRPRPRPACTPRP | 0.242
42 | RRIRIRPPRLPRPRPRPADQPRP | 0.0357
43 | RRIRIRPPRLPRPRPRPAFQPRP | 0.107
44 | RRIRIRPPRLPRPRPRPAGPPRP | 0.153
45 | RRIRIRPPRLPRPRPRPAICPRP | -0.15
46 | RRIRIRPPRLPRPRPRPAINPRP | -0.606
47 | RRIRIRPPRLPRPRPRPAKKPRP | 0.0493
48 | RRIRIRPPRLPRPRPRPAPCPRP | -0.0838
49 | RRIRIRPPRLPRPRPRPARTPRP | 0.0599
50 | RRIRIRPPRLPRPRPRPASNPRP | -0.205

Row | Sequence | shrunken log2 fold change
51 | RRIRIRPPRLPRPRPRPATLPRP | -0.559
52 | RRIRIRPPRLPRPRPRPAVCPRP | -0.214
53 | RRIRIRPPRLPRPRPRPAVEPRP | 0.193
54 | RRIRIRPPRLPRPRPRPAWSPRP | -0.191
55 | RRIRIRPPRLPRPRPRPAWYPRP | 0.0724
56 | RRIRIRPPRLPRPRPRPAYGPRP | -0.253
57 | RRIRIRPPRLPRPRPRPAYIPRP | 0.011
58 | RRIRIRPPRLPRPRPRPAYRPRP | -0.611
59 | RRIRIRPPRLPRPRPRPCAGPRP | -0.000248
60 | RRIRIRPPRLPRPRPRPCAIPRP | 0.137
61 | RRIRIRPPRLPRPRPRPCDFPRP | -0.834
62 | RRIRIRPPRLPRPRPRPCDQPRP | -0.021
63 | RRIRIRPPRLPRPRPRPCEMPRP | 0.0583
64 | RRIRIRPPRLPRPRPRPCGYPRP | -0.01
65 | RRIRIRPPRLPRPRPRPCHCPRP | 0.0274
66 | RRIRIRPPRLPRPRPRPCHNPRP | -0.293
67 | RRIRIRPPRLPRPRPRPCIAPRP | -0.0579
68 | RRIRIRPPRLPRPRPRPCKHPRP | -0.118
69 | RRIRIRPPRLPRPRPRPCMLPRP | -0.61
70 | RRIRIRPPRLPRPRPRPCMWPRP | -1.51
71 | RRIRIRPPRLPRPRPRPCNFPRP | -0.061
72 | RRIRIRPPRLPRPRPRPCNSPRP | -0.271
73 | RRIRIRPPRLPRPRPRPCPQPRP | -0.458
74 | RRIRIRPPRLPRPRPRPCPTPRP | -0.0511
75 | RRIRIRPPRLPRPRPRPCQGPRP | -0.0156

Row | Sequence | shrunken log2 fold change
76 | RRIRIRPPRLPRPRPRPCREPRP | -0.0225
77 | RRIRIRPPRLPRPRPRPCRTPRP | -0.333
78 | RRIRIRPPRLPRPRPRPCSKPRP | -0.267
79 | RRIRIRPPRLPRPRPRPCSTPRP | -0.484
80 | RRIRIRPPRLPRPRPRPCWFPRP | -0.165
81 | RRIRIRPPRLPRPRPRPCYCPRP | -0.0457
82 | RRIRIRPPRLPRPRPRPDAHPRP | -0.136
83 | RRIRIRPPRLPRPRPRPDELPRP | 0.0623
84 | RRIRIRPPRLPRPRPRPDGFPRP | -0.00369
85 | RRIRIRPPRLPRPRPRPDHDPRP | -0.0366
86 | RRIRIRPPRLPRPRPRPDHGPRP | 0.0143
87 | RRIRIRPPRLPRPRPRPDMVPRP | 0.0032
88 | RRIRIRPPRLPRPRPRPDNLPRP | -0.00843
89 | RRIRIRPPRLPRPRPRPDPHPRP | -0.314
90 | RRIRIRPPRLPRPRPRPDQMPRP | -0.393
91 | RRIRIRPPRLPRPRPRPDSAPRP | -0.194
92 | RRIRIRPPRLPRPRPRPDSIPRP | -0.00884
93 | RRIRIRPPRLPRPRPRPDTFPRP | -0.364
94 | RRIRIRPPRLPRPRPRPDTGPRP | -0.375
95 | RRIRIRPPRLPRPRPRPDTIPRP | -0.0883
96 | RRIRIRPPRLPRPRPRPDTPPRP | 0.0459
97 | RRIRIRPPRLPRPRPRPDVHPRP | -0.00757
98 | RRIRIRPPRLPRPRPRPDWFPRP | 0.0564
99 | RRIRIRPPRLPRPRPRPDWNPRP | -0.993
100 | RRIRIRPPRLPRPRPRPDYGPRP | -0.117

Row | Sequence | shrunken log2 fold change
101 | RRIRIRPPRLPRPRPRPEACPRP | -0.064
102 | RRIRIRPPRLPRPRPRPEANPRP | -0.00444
103 | RRIRIRPPRLPRPRPRPEATPRP | 0.511
104 | RRIRIRPPRLPRPRPRPECWPRP | 0.202
105 | RRIRIRPPRLPRPRPRPEFGPRP | 0.129
106 | RRIRIRPPRLPRPRPRPEGAPRP | 0.27
107 | RRIRIRPPRLPRPRPRPEHSPRP | 0.0398
108 | RRIRIRPPRLPRPRPRPEIHPRP | -0.0126
109 | RRIRIRPPRLPRPRPRPEKEPRP | -0.00237
110 | RRIRIRPPRLPRPRPRPEKFPRP | -0.247
111 | RRIRIRPPRLPRPRPRPEKLPRP | -0.048
112 | RRIRIRPPRLPRPRPRPELPPRP | 0.0135
113 | RRIRIRPPRLPRPRPRPELWPRP | 0.243
114 | RRIRIRPPRLPRPRPRPEMDPRP | -0.277
115 | RRIRIRPPRLPRPRPRPENAPRP | -0.0916
116 | RRIRIRPPRLPRPRPRPENGPRP | -0.219
117 | RRIRIRPPRLPRPRPRPENLPRP | -0.0595
118 | RRIRIRPPRLPRPRPRPEPDPRP | -0.00501
119 | RRIRIRPPRLPRPRPRPEQQPRP | -0.132
120 | RRIRIRPPRLPRPRPRPERHPRP | 0.0733
121 | RRIRIRPPRLPRPRPRPERLPRP | 0.0553
122 | RRIRIRPPRLPRPRPRPESEPRP | -0.0338
123 | RRIRIRPPRLPRPRPRPETMPRP | -0.108
124 | RRIRIRPPRLPRPRPRPEVSPRP | 0.068
125 | RRIRIRPPRLPRPRPRPEVVPRP | 0.00224

Row | Sequence | shrunken log2 fold change
126 | RRIRIRPPRLPRPRPRPEVWPRP | 0.217
127 | RRIRIRPPRLPRPRPRPEWAPRP | 0.0716
128 | RRIRIRPPRLPRPRPRPEWNPRP | -0.332
129 | RRIRIRPPRLPRPRPRPEYNPRP | 0.0781
130 | RRIRIRPPRLPRPRPRPFATPRP | -0.0964
131 | RRIRIRPPRLPRPRPRPFCDPRP | -0.0745
132 | RRIRIRPPRLPRPRPRPFDTPRP | 0.0514
133 | RRIRIRPPRLPRPRPRPFFMPRP | -0.538
134 | RRIRIRPPRLPRPRPRPFFRPRP | -0.636
135 | RRIRIRPPRLPRPRPRPFHQPRP | -0.961
136 | RRIRIRPPRLPRPRPRPFHTPRP | -0.235
137 | RRIRIRPPRLPRPRPRPFHYPRP | 0.0334
138 | RRIRIRPPRLPRPRPRPFIDPRP | -0.205
139 | RRIRIRPPRLPRPRPRPFIIPRP | -1.76
140 | RRIRIRPPRLPRPRPRPFIRPRP | -0.358
141 | RRIRIRPPRLPRPRPRPFKRPRP | -0.446
142 | RRIRIRPPRLPRPRPRPFLHPRP | -0.787
143 | RRIRIRPPRLPRPRPRPFLPPRP | -0.4
144 | RRIRIRPPRLPRPRPRPFMHPRP | -0.0575
145 | RRIRIRPPRLPRPRPRPFNVPRP | -0.217
146 | RRIRIRPPRLPRPRPRPFQEPRP | -0.0383
147 | RRIRIRPPRLPRPRPRPFQQPRP | -0.0967
148 | RRIRIRPPRLPRPRPRPFQTPRP | -0.271
149 | RRIRIRPPRLPRPRPRPFRSPRP | -0.221
150 | RRIRIRPPRLPRPRPRPFRTPRP | -0.241
